Patent US20190127434

B1: Recombinant Human UCH-L5/UCH37 (protein)
chain: MTGNAGEWCLMESDPGVFTELIKGFGCRGAQVEEIWSLEPENFEKLKPVHGLIFLFKWQPGEEPAGSVVQDSRLDTIFFAKQVINNACATQAIVSVLLNCTHQDVHLGETLSEFKEFSQSFDAAMKGLALSNSDVIRQVHNSFARQQMFEFDTKTSAKEEDAFHFVSYVPVNGRLYELDGLREGPIDLGACNQDDWISAVRPVIEKRIQKYSEGEIRFNLMAIVSDRKMIYEQKIAELQRQLAEEEPMDTDQGNSMLSAIQSEVAKNQMLIEEEVQKLKRYKIENIRRKHNYLPFIMELLKTLAEHQQLIPLVEKAKEKQNAKKAQETK
B2: UCH-L3, human recombinant (protein)
chain: MEGQRWLPLEANPEVTNQFLKQLGLHPNWQFVDVYGMDPELLSMVPRPVCAVLLLFPITEKYEVFRTEEEEKIKSQGQDVTSSVYFMKQTISNACGTIGLIHAIANNKDKMHFESGSTLKKFLEESVSMSPEERARYLENYDAIRVTHETSAHEGQTEAPSIDEKVDLHFIALVHVDGHLYELDGRKPFPINHGETSDETLLEDAIEVCKKFMERDPDELRFNAIALSAA
B3: Recombinant Human USP2 Catalytic Domain (protein)
chain: NSKSAQGLAGLRNLGNTCFMNSILQCLSNTRELRDYCLQRLYMRDLHHGSNAHTALVEEFAKLIQTIWTSSPNDVVSPSEFKTQIQRYAPRFVGYNQQDAQEFLRFLLDGLHNEVNRVTLRPKSNPENLDHLPDDEKGRQMWRKYLEREDSRIGDLFVGQLKSSLTCTDCGYCSTVFDPFWDLSLPIAKRGYPEVTLMDCMRLFTKEDVLDGDEKPTCCRCRGRKRCIKKFSIQRFPKILVLHLKRFSESRIRTSKLTTFVNFPLRDLDLREFASENTNHAVYNLYAVSNHSGTTMGGHYTAYCRSPGTGEWHTFNDSSVTPMSSSQVRTSDAYLLFYELASPPSRM

molecular target: K6UbKMRC011

Q: B1 was tested. Which “cleavage by ubiquitin cleavage enzymes, SDS-PAGE analysis (10 mg/L enzyme, 37 C, 12 hours)” value (“cleavage by ubiquitin cleavage enzymes” for short) did it give?
A: the refolded K6UbKMRC011 was cleaved by the ubiquitin cleavage enzymes shown in Table 2 and correctly separated into K6Ub and KMRC011

Q: Which “cleavage by ubiquitin cleavage enzymes” value does the source give for B2 here?
A: the refolded K6UbKMRC011 was cleaved by the ubiquitin cleavage enzymes shown in Table 2 and correctly separated into K6Ub and KMRC011

Q: For B3, which “cleavage by ubiquitin cleavage enzymes” value is on record?
A: the refolded K6UbKMRC011 was cleaved by the ubiquitin cleavage enzymes shown in Table 2 and correctly separated into K6Ub and KMRC011
